Measurements taken from PMC4373775.
Changes are numbered by the printed parent chain.

Key:
[1] = biological target: T1, ParB_Ala S5A;T32A;T41A;T53A;T110A;T195A;S239A;T254A;T300A;T303A (Mycobacterium tuberculosis H37Rv) (UniProt P9WIJ9); test: EMSA
T1 sequence: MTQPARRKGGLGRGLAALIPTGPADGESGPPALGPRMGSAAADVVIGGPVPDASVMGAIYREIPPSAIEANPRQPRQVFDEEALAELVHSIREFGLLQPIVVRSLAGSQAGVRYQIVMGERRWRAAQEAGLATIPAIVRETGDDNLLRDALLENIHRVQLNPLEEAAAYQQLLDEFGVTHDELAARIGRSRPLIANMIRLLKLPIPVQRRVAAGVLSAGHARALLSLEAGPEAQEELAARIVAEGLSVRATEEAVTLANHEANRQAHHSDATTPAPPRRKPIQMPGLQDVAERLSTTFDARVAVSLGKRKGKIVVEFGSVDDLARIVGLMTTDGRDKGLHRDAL

[2] = biological target: T2, ParB_Asp S5D;T32D;T41D;T53D;T110D;T195D;S239D;T254D;T300D;T303D (Mycobacterium tuberculosis H37Rv) (UniProt P9WIJ9); test: EMSA
T2 sequence: T1 sequence with A5D, A32D, A41D, A53D, A110D, A195D, A239D, A254D, A300D, A303D

For “GCGAGTGGAGGGACGGCGTGAGTGCTCCGTGGGGCCCGGTGGCCGCTGGACCGTCCGCGCTCGTAAGGTCGGGCCAGGCTTCAACTATCGAACCATTCCAGCGGGAAATGACACCACCGACACCGACGCCTGAGGCCGCGCACAATCCGACGATGAATGTTTCACGTGAAACATCGACAGAATTCGACACCCCCATCGGCGCTGCAGCAGAACGTGCGATGCG (double strand) [parS probe]”, the binding [1] was “binds” and the binding [2] was “binds more weakly”.
